Assay results reported in article PMC10202384.

Target: recombinant full-length SARS-CoV-2 spike protein with a C-terminal 8x His-tag (SARS-CoV-2) (UniProt P0DTC2)
Assay: BLI; spike with C-terminal 8x His-tag (0.35 μM) immobilised on nickel nitrilotriacetic acid biosensors; αIIbβ3 in solution, zero to 0.51 μM (68 to 512 nM); 20 mM tris pH 7.4, 137 mM NaCl, 1 mM MgCl2, 1 mM MnCl2, 1 mM CaCl2, 50% glycerol plus 1X Octet Kinetics Buffer; 25 °C; global fit

## platelet-derived purified human αIIbβ3 protein (from UniProt P05106 27-788) (complex)
  Kd: 47 nM
